Starred links: 1 amine or outer side, 2 acyl side, 3 side chain; linkers in the order of their positions; H or OH if unused. Positions of bridges follow the written chain, without caps; N, C: chain ends. *: point of attachment. TATA = O=C(CC[*:1])N1CN(C(=O)CC[*:2])CN(C(=O)CC[*:3])C1; Pent4ynoyl = C#CCCC(=O)*
Target: T1, Recombinant biotinylated human P-Selectin protein (human, UniProt P16109 42-771, limits assumed, biotinylated (site not stated))
T1 sequence (looked up): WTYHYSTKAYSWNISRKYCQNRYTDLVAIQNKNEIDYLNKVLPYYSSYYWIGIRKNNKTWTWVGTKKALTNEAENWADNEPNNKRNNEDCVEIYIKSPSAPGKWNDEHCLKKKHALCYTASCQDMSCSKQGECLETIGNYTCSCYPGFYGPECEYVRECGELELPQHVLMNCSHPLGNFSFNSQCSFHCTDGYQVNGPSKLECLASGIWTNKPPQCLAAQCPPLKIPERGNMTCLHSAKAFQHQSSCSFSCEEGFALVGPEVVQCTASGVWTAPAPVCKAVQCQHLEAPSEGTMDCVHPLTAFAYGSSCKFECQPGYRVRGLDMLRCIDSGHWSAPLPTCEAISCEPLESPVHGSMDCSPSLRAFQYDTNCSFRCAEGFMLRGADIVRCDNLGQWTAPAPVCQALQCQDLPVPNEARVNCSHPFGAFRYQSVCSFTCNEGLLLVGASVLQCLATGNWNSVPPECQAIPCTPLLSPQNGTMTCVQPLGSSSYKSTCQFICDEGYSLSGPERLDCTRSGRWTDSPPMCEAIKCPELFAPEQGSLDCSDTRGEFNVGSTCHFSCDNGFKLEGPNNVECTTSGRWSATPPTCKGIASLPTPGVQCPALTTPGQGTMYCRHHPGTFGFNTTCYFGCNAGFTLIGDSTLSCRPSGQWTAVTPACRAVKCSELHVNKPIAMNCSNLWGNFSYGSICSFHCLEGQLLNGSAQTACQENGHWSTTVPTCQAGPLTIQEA
Experiment: SPR (Biacore), biotinylated human P-selectin captured on streptavidin chip, peptide as analyte; peptide BCY5455, a separate peptide number
Protocol: Biacore experiments were performed to determine ka (M−1s−1), kd (s−1), KD (nM) values of monomeric peptides binding to human Selectin proteins. Recombinant biotinylated human P-Selectin protein was used. For analysis of binding, either a Biacore 3000 or 5200 instrument was used with a CMS sensor chip (GE Healthcare). For sensor chip surface preparation, streptavidin was immobilized on the chip using standard amine-coupling chemistry at 25° C. with HBS-N (10 mM HEPES, 0.15 M NaCl, pH 7.4) as the running buffer. The carboxymethyl dextran surface was activated with a 12 min injection of a 1:1 ratio of 0.4 M 1-ethyl-3-(3-dim ethyl aminopropyl) carbodiimide hydrochloride (EDC)/0.1 M N-hydroxy succinimide (NHS) at a flow rate of 10 μl/min. For capture of streptavidin, protein was diluted to 0.2 mg/ml in 10 mM sodium acetate (pH 4.5) and captured by injecting 70 μl onto the activated chip surface. Residual activated groups were blocked with a 7 min injection of 1 M ethanolamine (pH 8.5). Biotinylated protein stock was diluted 1:100 in HBS-N and captured on one flow cell at 5 μl/min to a level of 1000-1500 RU. Buffer was changed to PBS/0.05% Tween 20 and a dilution series of the peptides was prepared in this buffer with a final DMSO concentration of 0.5%. […] In all cases a titration was performed with either seven 2-fold dilutions or five 3-fold dilutions. […]

B1: BCY5455 (peptide)
peptide: Pent4ynoyl-ACYMEWCDVTDYGCA-NH2
modifications: linker 2-7-14 via TATA; also: tandem dimer of 2 copies via central hinge C (GTA) and spacer S1A n=23 joined to N-terminal Pya
- Kd: 1250 nM

Reference: patent US20220339289A1 (Bicycle, published 2022)
